Laboratory results from patent US20150031601A1.

Biological target: serum proteins
Assay: 90% serum, 30 kDa ultrafiltration, HPLC

Binder	Protein binding (%)
GFCWNVCVYRNGVRRCHRRCN [SEQ ID NO: 252]	76
GFCARVCVYRNGVRSCYRRCN [SEQ ID NO: 122]	81
GFCWNACVKRNGVRVCYRRCN [SEQ ID NO: 258]	89
GFCWNVCVYRRGVRVCHRRCN [SEQ ID NO: 234]	86
GFCWNVCVYRNYVRVCHRRCN [SEQ ID NO: 229]	91
GFCWNVCVYRNGVRLCHRRCN [SEQ ID NO: 249]	83
GFCWNVCVYRHGVRVCHRRCN [SEQ ID NO: 232]	85
GFCYRVCVYRNGVRVCSRRCN [SEQ ID NO: 211]	96
GFCWNVCVYRNGYRVCHRRCN [SEQ ID NO: 242]	83
GFCYRVCVYRNGVRVCHRRCN [SEQ ID NO: 210]	89
GFCFYVCVKRNGVRVCHRRCN [SEQ ID NO: 137]	86
GFCWNVCVYRGGVRVCHRRCN [SEQ ID NO: 231]	66
GFCWNVCVYRNGVRVCYRRCN [SEQ ID NO: 11]	73
GFCWNVCVYRNGVRNCHRRCN [SEQ ID NO: 251]	71
GFCYKVCVYRNGVRSCYRRCN [SEQ ID NO: 206]	86
GFCWNVCVYRNGVRFCHRRCN [SEQ ID NO: 245]	85
GFCWNVCVYRNRVRVCHRRCN [SEQ ID NO: 228]	86
GFCWNVCVYRAGVRVCHRRCN [SEQ ID NO: 230]	71
GFCGRVCVRRNGVRVCYRRCN [SEQ ID NO: 172]	88
GFCWYGCVYRNGVRVCYRRCN [SEQ ID NO: 15]	96
GFCYNVCVYRNGVRRCYRRCN [SEQ ID NO: 207]	91
GFCWYSCVYRNGVRVCYRRCN [SEQ ID NO: 19]	89
GFCYRVCVYRNGVRTCYRRCN [SEQ ID NO: 209]	89
GFCGRVCVYRNGVRRCYRRCN [SEQ ID NO: 170]	87
GFCWNVCVYRNGVRGCHRRCN [SEQ ID NO: 246]	79

Continued, values first:

Protein binding (%)	Binder
84	GFCWNFCVYRNGVRVCHRRCN [SEQ ID NO: 260]
95	GFCTYVCVKRNGVRKCYRRCN [SEQ ID NO: 195]
99	GFCWHVCHYRNSVRVCYRRCN [SEQ ID NO: 219]
64	GFCWNVCVYRNGARVCHRRCN [SEQ ID NO: 235]
83	GFCGHVCVYRNGVRRCYRRCN [SEQ ID NO: 155]
68	GFCGHVCVYRNGVRVCYRRCS [SEQ ID NO: 144]
69	GFCAKVCVYRNGVRSCYRRCN [SEQ ID NO: 120]
94	GFCWNVCVYRNGVRWCHRRCN [SEQ ID NO: 253]
77	HFCWNVCVYRNGVRVCHRRCN [SEQ ID NO: 98]
80	GFCWNVCVYRNKVRVCHRRCN [SEQ ID NO: 227]
65	GFCWNVCVYRNGRRVCHRRCN [SEQ ID NO: 239]
78	GFCWNVCVYRQGVRVCHRRCN [SEQ ID NO: 233]
95	GFCWHVCVYRNGARSCYRRCN [SEQ ID NO: 213]
88	GFCWNICVYRNGVRVCHRRCN [SEQ ID NO: 262]
90	GFCARVCVKRNGVRVCYRRCN [SEQ ID NO: 125]
81	MFCWNVCVYRNGVRVCHRRCN [SEQ ID NO: 101]
99	GFCWHVCARRNGVRVCYRRCN [SEQ ID NO: 218]
77	GFCWNVCVYRNGVRYCHRRCN [SEQ ID NO: 254]
78	KFCWNVCVYRNGVRVCHRRCN [SEQ ID NO: 100]
40	GFCWNVCVYRNGHRVCHRRCN [SEQ ID NO: 237]
64	GFCWKVCVYRNGVRVCYRRCN [SEQ ID NO: 10]
58	GFCWNVCVYRNGVRICHRRCN [SEQ ID NO: 248]
84	GFCGRVCVYRNGVRTCYRRCN [SEQ ID NO: 171]
